Earlier results in publication PMC3042137.

Target: JIP1 (L-pepJIP1) (Homo sapiens) (UniProt Q9UQF2)
Experiment: ITC

Sequence of UniProt Q9UQF2 (Q9UQF2 whole entry): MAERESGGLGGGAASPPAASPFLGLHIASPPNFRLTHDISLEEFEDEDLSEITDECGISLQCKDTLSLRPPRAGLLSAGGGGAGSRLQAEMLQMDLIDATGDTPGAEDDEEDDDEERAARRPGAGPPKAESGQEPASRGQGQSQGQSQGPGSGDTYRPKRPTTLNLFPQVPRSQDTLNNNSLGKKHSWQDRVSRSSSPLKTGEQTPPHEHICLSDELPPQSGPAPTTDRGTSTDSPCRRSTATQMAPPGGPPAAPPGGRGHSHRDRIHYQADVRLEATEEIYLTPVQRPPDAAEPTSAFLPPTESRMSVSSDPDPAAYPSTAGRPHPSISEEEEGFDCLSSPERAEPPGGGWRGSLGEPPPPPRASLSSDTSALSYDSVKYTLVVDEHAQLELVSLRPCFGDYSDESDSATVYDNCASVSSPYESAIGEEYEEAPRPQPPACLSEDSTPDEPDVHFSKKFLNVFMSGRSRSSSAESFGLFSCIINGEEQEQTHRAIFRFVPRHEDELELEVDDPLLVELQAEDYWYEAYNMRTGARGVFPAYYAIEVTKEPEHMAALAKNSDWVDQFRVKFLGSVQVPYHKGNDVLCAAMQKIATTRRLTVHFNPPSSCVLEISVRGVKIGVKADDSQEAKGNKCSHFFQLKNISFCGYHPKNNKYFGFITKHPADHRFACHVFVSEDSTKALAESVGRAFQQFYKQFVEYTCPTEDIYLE

Substance: JNK1 (from UniProt P45983)
- Kd: 0.42 µM
